Results from patent publication US20240059799A1 (Pfizer, published 2024).

T1: recombinant mouse TL1A (mouse, UniProt Q5UBV8 75-252)
T1 construct: biotinylated for SPR capture
T1 chain: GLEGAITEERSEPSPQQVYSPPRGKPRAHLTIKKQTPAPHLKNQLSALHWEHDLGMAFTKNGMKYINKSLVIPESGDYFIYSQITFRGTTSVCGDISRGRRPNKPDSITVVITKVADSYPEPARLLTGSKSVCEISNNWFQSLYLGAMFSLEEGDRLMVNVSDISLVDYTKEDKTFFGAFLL

T2: recombinant rat TL1A (rat, UniProt Q8K3Y7 76-252)
T2 construct: biotinylated for SPR capture
T2 sequence: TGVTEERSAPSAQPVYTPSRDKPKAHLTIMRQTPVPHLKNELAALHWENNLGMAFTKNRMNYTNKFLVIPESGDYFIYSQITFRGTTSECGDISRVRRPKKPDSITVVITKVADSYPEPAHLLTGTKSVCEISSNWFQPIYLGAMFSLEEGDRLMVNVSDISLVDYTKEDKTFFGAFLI

T3: cynomolgus monkey IL-23 (cynomolgus monkey, limits assumed)
T3 chain 1: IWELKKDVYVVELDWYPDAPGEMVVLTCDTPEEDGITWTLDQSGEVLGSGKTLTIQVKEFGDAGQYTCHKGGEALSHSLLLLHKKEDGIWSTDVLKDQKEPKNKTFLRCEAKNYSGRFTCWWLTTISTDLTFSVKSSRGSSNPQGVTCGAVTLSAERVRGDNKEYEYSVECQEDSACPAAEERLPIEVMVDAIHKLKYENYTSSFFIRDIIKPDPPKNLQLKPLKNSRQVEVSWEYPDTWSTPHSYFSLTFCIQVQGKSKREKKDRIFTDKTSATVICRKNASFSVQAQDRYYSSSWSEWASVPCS
T3 chain 2: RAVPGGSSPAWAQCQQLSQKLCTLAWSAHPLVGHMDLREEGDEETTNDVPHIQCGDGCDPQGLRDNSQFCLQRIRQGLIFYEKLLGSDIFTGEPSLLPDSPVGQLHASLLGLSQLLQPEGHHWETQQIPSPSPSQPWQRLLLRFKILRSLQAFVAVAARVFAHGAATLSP

T4: recombinant human TL1A (human, UniProt O95150 71-251)
T4 construct: TL1A is described as a homotrimer; Biotinylated for SPR capture; also called TNFSF15
T4 chain: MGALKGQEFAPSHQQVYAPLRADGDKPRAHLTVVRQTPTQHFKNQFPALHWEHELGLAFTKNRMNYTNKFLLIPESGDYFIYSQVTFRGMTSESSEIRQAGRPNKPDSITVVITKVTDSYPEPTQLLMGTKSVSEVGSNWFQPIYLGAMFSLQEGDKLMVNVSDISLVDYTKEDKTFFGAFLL

T5: recombinant cynomolgus monkey TL1A (cynomolgus monkey, UniProt O95150 72-251 (human entry))
T5 construct: also called Cyno TL1A
T5 chain: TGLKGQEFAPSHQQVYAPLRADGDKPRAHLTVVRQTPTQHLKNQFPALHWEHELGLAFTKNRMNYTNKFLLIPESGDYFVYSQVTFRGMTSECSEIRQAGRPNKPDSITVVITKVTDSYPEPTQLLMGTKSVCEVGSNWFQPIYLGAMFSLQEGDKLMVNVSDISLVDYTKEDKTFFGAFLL

T6: recombinant mouse TL1A (mouse, UniProt Q5UBV8 75-252)
T6 chain: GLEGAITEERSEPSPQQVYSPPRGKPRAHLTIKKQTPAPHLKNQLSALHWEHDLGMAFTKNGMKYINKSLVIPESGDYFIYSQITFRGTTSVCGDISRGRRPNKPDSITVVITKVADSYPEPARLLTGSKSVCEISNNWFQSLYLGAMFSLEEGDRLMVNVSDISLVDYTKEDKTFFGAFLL

T7: recombinant rat TL1A (rat, UniProt Q8K3Y7 76-252)
T7 sequence: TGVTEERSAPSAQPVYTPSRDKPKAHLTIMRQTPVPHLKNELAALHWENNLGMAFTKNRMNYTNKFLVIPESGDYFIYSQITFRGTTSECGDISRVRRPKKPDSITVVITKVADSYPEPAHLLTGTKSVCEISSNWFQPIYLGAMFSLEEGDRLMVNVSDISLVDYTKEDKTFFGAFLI


Experiments:
[1] = biological target: T1, recombinant mouse TL1A; assay: SPR, antibody injected over captured biotinylated TL1A, 37° C.
Procedure: (§1) For these analyses, kinetic assays were conducted at 37° C. using a collection rate of 10 Hz on a Biacore™ T200 instrument (GE Healthcare). […] The association phase was 90 seconds, and the dissociation phases were 1600 seconds over human, cynomolgus monkey and rabbit TL1A and 180 seconds for mouse and rat TL1A.
(§2) In order to determine binding to TL1A, kinetic assays were conducted at 37° C. using a collection rate of 10 Hz on a Biacore™ T200 instrument (GE Healthcare).

[2] = biological target: T2, recombinant rat TL1A; assay: as above
Procedure: as §1, §2

[3] = biological target: T3, cynomolgus monkey IL-23; assay: cell-based or functional assay
[4] = biological target: T4, recombinant human TL1A; assay: SPR, 37 C; biotinylated human TL1A captured on Biotin CAPture chip, antibody injected
Procedure: SPR was utilized to determine if the affinity constants of each arm of the bispecific variants binding human IL-23, containing the p40 subunit, and human TL1A were the same for each bispecific approach. For the analysis of the p40 binding arm, kinetic assays were conducted at 37° C. using a collection rate of 10 Hz on a Biacore™ 8 K+ instrument (GE Healthcare). An anti-human IgG antibody (anti-human Fc, GE Healthcare, 22-0648-88) was amine coupled to all four flow cells of a carboxymethylated dextran coated sensor chip (GE Healthcare,) using the manufacturer's recommended protocol. […] For the analysis of the TL1A binding arm, kinetic assays were conducted at 37° C. using a collection rate of 10 Hz on a Biacore™ T200 instrument (GE Healthcare).
As described above in EXAMPLE 12, SPR was utilized to determine if the affinity constants of each arm of the bispecific variants binding human IL-23, containing the p40 subunit, and human TL1A were the same for each bispecific variant.

[5] = biological target: T4, recombinant human TL1A; assay: SPR, Biacore T200, 37 C; biotinylated TL1A captured on Biotin CAPture chip, antibody injected
Procedure: (§3) In order to determine binding to TL1A, kinetic assays were conducted at 37° C. using a collection rate of 10 Hz on a Biacore™ T200 instrument (GE Healthcare). […] For the analysis of the p40 binding arm, kinetic assays were conducted at 37° C. using a collection rate of 10 Hz on a Biacore™ 8 K+ instrument (GE Healthcare).

[6] = biological target: T5, recombinant cynomolgus monkey TL1A; assay: as above
Procedure: as §3

[7] = biological target: T6, recombinant mouse TL1A; assay: as above
Procedure: as §3

[8] = biological target: T7, recombinant rat TL1A; assay: as above
Procedure: as §3

binding result [1]	binding result [2]	KIT-225 STAT3 phosphorylation, Cynomolgus Monkey IL-23 IC50 [3] [nM]	Kd [4] [nM]	koff [4] [s⁻¹]	kon [4] [M⁻¹ s⁻¹]	Kd [5] [nM]	koff [5] [s⁻¹]	kon [5] [M⁻¹ s⁻¹]	Kd [6] [nM]	koff [6] [s⁻¹]	kon [6] [M⁻¹ s⁻¹]	Kd [7] [nM]	koff [7] [s⁻¹]	kon [7] [M⁻¹ s⁻¹]	koff [8] [s⁻¹]	kon [8] [M⁻¹ s⁻¹]	Binder
binds	binds	–	–	–	–	–	–	–	–	–	–	–	–	–	–	–	p40TL1A-0033 (bispecific antibody, human IgG1, kappa, KiH modified-Fd bispecific: TL1A VL-CL-Fc (hole), TL1A mFd, p40 HC (knob), p40 LC; LS) chain 1: not shown chain 2: QVQLVQSGAEVKKPGASVKVSCKASGYDYTYYGISWVRQAPGQGLEWMGWISTYNTGTHYAPSLQGRVTMTTDTSTSTAYMELRSLRSDDTAVYYCARESYYGSGAFRGGMDVWGQGTTVTVSSASTKGPSVFPLAPSSKSTSGGTAALGCLVKDYFPEPVTVSWNSGALTSGVHTFPAVLQSSGLYSLSSVVTVPSSSLGTQTYICNVNHKPSNTKVDKKVEPKSC heavy: EVQLVQSGAEVKKPGESLKISCKGSGYSFTTYWLGWVRQMPGKGLDWIGIMSPVDSDIRYSPSFQGQVTMSVDKSITTAYLQWNSLKASDTAMYYCARRRPGQGYFDFWGQGTLVTVSSASTKGPSVFPLAPSSKSTSGGTAALGCLVKDYFPEPVTVSWNSGALTSGVHTFPAVLQSSGLYSLSSVVTVPSSSLGTQTYICNVNHKPSNTKVDKKVEPKSCDKTHTCPPCPAPEAAGAPSVFLFPPKPKDTLMISRTPEVTCVVVDVSHEDPEVKFNWYVDGVEVHNAKTKPREEQYNSTYRVVSVLTVLHQDWLNGKEYKCKVSNKALPAPIEKTISKAKGQPREPQVCTLPPSREEMTKNQVSLWCLVKGFYPSDIAVEWESNGQPENNYKTTPPVLDSDGSFFLYSKLTVDKSRWQQGNVFSCSVLHEALHSHYTQKSLSLSPGK light: not shown
–	–	4.34	0.622	8.21e-05	132000	0.34	5.05e-05	150000	1.09	0.000127	117000	288	0.00761	26700	0.0562	52400	p40TL1A-0033 bispecific antibody (bispecific antibody, human IgG1, kappa, Single cell KiH, modified Fd format; IgG1 effector-function-minimized Fc with LS mutations) heavy: EVQLVQSGAEVKKPGESLKISCKGSGYSFTTYWLGWVRQMPGKGLDWIGIMSPVDSDIRYSPSFQGQVTMSVDKSITTAYLQWNSLKASDTAMYYCARRRPGQGYFDFWGQGTLVTVSSASTKGPSVFPLAPSSKSTSGGTAALGCLVKDYFPEPVTVSWNSGALTSGVHTFPAVLQSSGLYSLSSVVTVPSSSLGTQTYICNVNHKPSNTKVDKKVEPKSCDKTHTCPPCPAPEAAGAPSVFLFPPKPKDTLMISRTPEVTCVVVDVSHEDPEVKFNWYVDGVEVHNAKTKPREEQYNSTYRVVSVLTVLHQDWLNGKEYKCKVSNKALPAPIEKTISKAKGQPREPQVCTLPPSREEMTKNQVSLWCLVKGFYPSDIAVEWESNGQPENNYKTTPPVLDSDGSFFLYSKLTVDKSRWQQGNVFSCSVLHEALHSHYTQKSLSLSPGK light: not shown chain 1: not shown chain 2: QVQLVQSGAEVKKPGASVKVSCKASGYDYTYYGISWVRQAPGQGLEWMGWISTYNTGTHYAPSLQGRVTMTTDTSTSTAYMELRSLRSDDTAVYYCARESYYGSGAFRGGMDVWGQGTTVTVSSASTKGPSVFPLAPSSKSTSGGTAALGCLVKDYFPEPVTVSWNSGALTSGVHTFPAVLQSSGLYSLSSVVTVPSSSLGTQTYICNVNHKPSNTKVDKKVEPKSC
